The nanobody polyreactivity screen of Harvey et al. (2022)

Test: yeast display, Sf9 membrane polyspecificity reagent, FACS + sequencing; frameworks hold sequencing errors
Outline: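 Galactose induction of a Saccharomyces cerevisiae BJ5465 synthetic nanobody display library ran 36–48 hours. The cells were then stained for 1 hour at 4 °C with 10% biotinylated, detergent-solubilized Sf9 membrane reagent, pulled down on streptavidin microbeads and FACS-sorted into low and high (top ~1%) gates on expression and reagent-binding fluorescence. Labels for polyreactivity follow the gate of origin.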

Sequence	polyreactivity (PSR sort gate)
QVQLVESGGGLVQAGGSLRLSCAASGRIFSRNAMGWYRQAPGKERELVAAITYSGGSTYYADSVKGRFTISRDNAKNTVYLQMNSLKPEDTAVYYCNADLYLQLPESYEYDYWGQGTQVTVSS	high polyreactivity
QVQLVESGGGLVQAGGSLRVSCAASGFIFLNNAMGWYRQAPGKERELVAAITWSGGSTYYADSVKGRFTISRDNAKNTVYLQMKSLKPEDTAVYYCAADGWLYYGVGYWGQGTQVTVSS	low polyreactivity
QVQLVESGGGLVQAGGSLRLSCAAAGSIFYYNAMGWYRQAPGKERELVASIRAHGGNTYYADSVKGRFTISRDNAKNTVYLQMNSLKPEDTAVYYCAKESRYAHLYYYWGLGTQVTVSS	low polyreactivity
QVQLVESGGGLVQAGGSLRLSCAASGSIFHDYAMGWYRQEHGKERELVAVISTSGGSTYYADSVKGRFTISRDNAKNTDYLQMNSLKPEYTAVYYCNARTVGPYPSQAALEYDSGGQGTQVTVSS	low polyreactivity
QVQLVESGGGLVQAGGSLRLSCAASGFTFGSNAMGWYRQAPGKERELVATISRRGGRTYYADSVKGRFTISRDNAKNTVYLQMNSLKPEDTAVYYCAADRSRPGYDYWGQGTQVTVSS	high polyreactivity
QVQLVESGGGLVQAGGSLRLSCASSGSTLGVNAMGWYRQAPGKVRELVADISVRTDSTYYADSVKGRFTISRDNAKNTVYLQMNSLKPEDTAVYYCAADVPYYYPGFYSYYDDSDYWGQGTQVTVSS	low polyreactivity
QVQLVESGGGLVQAGGSLRLSCAASGIIIVRYAMGWYRQAPGKERELVAAISRRGGSTYYADSVKGRFTISRDNAKNTVSLQMNSLKPEDTAVYYCAALLGDITGYDYWGQGTQVTVSS	high polyreactivity
QVQLVESGGGLVQAGGSLRLSCAASGSIFWYYVMGWYRPAPGKERELVAAISNVSTYYADSVKGRFTISRDNAKNTVYLQMNSLKPEDTAVYYCAARGLLWYYSWRYYYWGQGTQVTVSS	low polyreactivity
QVHLVESGGGLVQAGGSLRLSCAASGRIFSVYAMGWYRQAPGKERELVAVITTSGGSTYYADSVKGRFTISRGNAKNTVYLQMNSLKPEDTAVYYCNAEPWSYAIGSYEYWGQGTQVTVSS	high polyreactivity
QVQLEESGGGIVQAGGSLRLSCAASGITFYWYAMGWYRQAPGKERELVASITGNGGGTSYADSVKGRFTISRDNAKNTVYLQMNSLKPEDTAVYYCNTSVGVKDYVSWGQGTQVTLSS	low polyreactivity
QVQLEESGGGLDQAGGSLRLICAASGSIFPSYAMGWYRQAPGKERELVATIGRGGTTNYSDSVKGRFTISRDNAKITVYLLMNSLKPEDTAVYYCNADRIWRYKYGYDYWRQGTQVTVSS	high polyreactivity
QVQLVESGGGLVQAGGSLRLSCAASGFIFTDYAMAWYRQAPGKERELVAAISYGGRTYYADSVKGRFTISRDNAKNTVYLQMNSLKPEDTAVYYCAAEKWDRYSSWSDYWGQGTQVTVSS	high polyreactivity
QVQLVESGGGLVQAGGSLRLSCAASGSTFGSNAMGWYRQAPGKERELVAAITRRGGSTYYADSVKGRFTISRDKAKNTVYLQMNSLKPEDTAVYYCAAQIHPRRDYSAFDYWGQGTQVTVSS	low polyreactivity
QVQLVESGGGLVQAGGSLRLSCAASGRTFKYYAMGWYRQAPGKERELVAGITGRGGGTYYADSVKGRFTISRDNAKNTVYLQMNSLKPEDTAVYYCAAERIYWKYYEYDYWGQGTEVTVSS	high polyreactivity
QVQLVESGGGLVQAGCSLRLSCAASGRTFVQYFMGWYRQAPGKERELVAAITSSGGSTYADSVKGRFTISRDNAKNTVFLHMNSLKPEDTAVYYCAADYLDGVGDVEHDYWGQGTQVTVSS	low polyreactivity
QGQLVESGGGFVQEGGSLRLSCAASRSIFRLYAMGWYRQAPGKEREFVARLRWRGGSTNYADSVKGRFTISRDNAKKTVYLQMNSLKPEDTAVYYCNARGRSGGGRYDYWGQGTQVTVSS	high polyreactivity

Sequence	polyreactivity (PSR sort gate)
QVQLLESGGGLVQSGGSLRVSCAASGRNFGRYDMGWYRQAPGKERELVATISSRGGNTYYADSVKGRVTISRDNAMNTVYLQMNSLTPDDTAVYYCAAQTYKWYDWGQGTQVTVSS	high polyreactivity
QVQLVESGAGLVQAAGSLRLICASSGFILLDKAMGWYRQAPGKEREFVASINISGARTFYADSVKGRFTISRDTAKNTVYLQMNSLKPEDTAVYYCAKEPGWGRRSTTAYDYWGQGTQVTVSS	low polyreactivity
QDQIVESGGGLVQAGGSLRLTCAASGLNIYDNMGWYRQAPGKERELVAAISSSGGSTSYADSVKGRFTISRDNAKNTFYVQMNSLKPEDTAVYYCAADSYPAYLGFVGFDYWGQGTQVTVSS	low polyreactivity
QVQLVESGGGLVQAGGSLRLSCAASGRIFTHNAMGWYRQAPGKERELVAAISYSGVSTYYADSVKGRFTISRDNAKNTVYLHMNSLKPEDTAVYYCNALIQSWRARIRRYYWGQGTQVTVSS	low polyreactivity
QVQLVESGGGLFQAGGSLRLSCAASGRTFRDYVMGWYRKATGKERELVAAISTRGASTYYADSVKGRFTISRDNAKNTVDLQMNSLKPEDTAVYYCAARSTRRGNEYDYWGQGTQVTGSS	high polyreactivity
QVQIVESGGVLVQAGGSIRLSCDASGSLFTIYAMGCYRQAPGKERELVAAITWSGGSTYYADSVKGRYTISRDNAKNTVNLQMNSLKPEDTAVYYCAADAYTGDIPYWWPWNNEYDYWGQGTQVTLSS	low polyreactivity
QVQLVESGGGLVQAGGSLRLSCAASGRTFRRYAMGWYRQAPGKERELVAASSRGANTNYADSVKGRFTISRDNAKNTFYLQMNSLKPEDTAVYYCNAKQAGYYFAFGYWGQGTQVTVSS	high polyreactivity
QVQLVESGGGLVQAGGSLRLSCAASGRIFRYYAMGWYRQAPGKERELVATISRSGGSTFYADSVKGRFTISRDNAKNTVYLQMNSLKPEDTAVYYCNARYQTGGYGYWGQGTQVTVSS	high polyreactivity
QVQLVESGGGLVQAGGSLRLSCAASGRIFYYNAMGWYRQAPGKERELVAAINIGGGTKYADSVKGRFTISRDNAKNTVYLQMNSLKPEDTAVYYCAAGIKRYLSYYTRYGYWGQGTQVTVSS	high polyreactivity
QVQLQESGGGLVQAGGSLRLSCAASGTISQEDCMGWYRQATGKQREFVAAIGLGSNTNYADSLKGRFTISRDNAKNTVYLLMNSLKPEDTAVYYCAVSVWQYSDHVYRGQGTQVTVSS	low polyreactivity
QVQLVESGGGLVQAGGSLRLSCAASGSTFDTYAMGWYRQAPGKERELVATITNSVGNTYYADSVKGRFTISRDNAKNTVYLQMNSLKPEDTAVYYCAAETVYILAPGYYDYDYWGQGTQVTVSS	low polyreactivity
QVQLVDSGGGLVQAGGSLRLSFAASGITFFYYAMGWYRQAPGKERELVAAISTSGGRTYYADSVKGRFTISRDNAKNTVYLQMNSLKPEDTAVYYSAAQSGWLRYYYWGQGTQVTVSS	high polyreactivity
QVQLVESGGGLVQAGGSLRLSCAASGRILHANAMGWYRQAPGKERELVAAITGRGGSTYYADSVKGRFTISRDNAKITVYLQMNSLKPEDTAVYYCAARVKQAGYRMDYWVQGTQVTVSS	high polyreactivity
QVQLVESGGGLVQAGGSLRLSCAASGSTFGSYAMGWYRQAPGTERELVAAISRAGSTYADSVKGRFTISRDNAKNTVYLQMHSLKPEDTAVYYCANRDNALYYGYDYWGQGTQVTVSS	low polyreactivity
QVQLVESGGGLVQAGGSLRLSCAASGSIFDVYAMGWYRQAPGKERELVATMSNSAGSTYYADSVKGRFTISRDNAKYTVYLQMNSLKPEDTAVYYCAAVVVYFDEYDYWGQGTQVTVSS	low polyreactivity
QVQLVESGGGLVQAGGSLRLSSAASGYIFTPYAMGWYRQAPGKERELVAAISSSTVRTFYADSVKGRFTISRDNAKNTVYLQMNSLKPEDTAVYYCAARGYWGQGTQVTVSS	high polyreactivity
